This experiment deals with recombinant human alpha-synuclein preformed fibrils (PFF) (human, UniProt P37840 1-140). The experiment in a line: ELISA on coated alpha-synuclein PFF, Fab in serial dilution.

Results on two molecules are retold here after patent publication US20230340091A1 (MOR RESEARCH APPLICATIONS, published 2023).

Experimental: A standard ELISA assay was performed using alpha-synuclein PFFs as the coating protein.

B1: PMS209 (Fab 2), Fab format (Fab, V domains shown)
VH: QVQLQESGPGLVKPSETLSLTCTVSGGSISSSSYYWGWIRQPPGKGLEWIGSIYYSGSTYYNPSLKSRVTISVDTSKNQFSLKLSSVTAADTAVYYCARLRRYDSSGFFFDYWGQGTLVTVSS
VL: SVVTQPPSVSAAPGQKVTISCSGSSSNIGNNYVSWHQQLPGTAPKLLIYDNDRRPSGIPDRFSGSKSGTSATLAITGLQTGDEADYYCGTWDSSLSGGVFGGGTKVTVLS
On to B1, for which the binding result is given as “no binding”.

B2: PMS213 (Fab 6), Fab format (Fab, V domains shown)
VH: QVQLVQSGPGLVKPSETLSLICTVSGGSISSSNYYWGWVRQPPGKGLEWIGTIYYSGTTYYNPSLKSRVTISVDTSKNQFSLELSSVTAADTAVYYCARLGRGSAFDIWGQGTMVTVSS
VL: SVVTQPPSLSAAPGQSITISCSGGGSNIGRNSVSWHRQFPGAAPELLAFDTFRRPSGVPDRFSGSKSGSSATLVITGLQTGDEADYYCGTWDNSLDSGVFGGGTKVTVLR
notes: Fab expressed in E. coli with His and myc tags on the heavy chain
Consider B2, for which the binding result is reported as “no binding”.
